What was measured:
Cren7 [1] = target: T1, Cren7 (Sulfolobus solfataricus, UniProt Q97ZE3 1-60); experiment: EMSA; 4 mM Mg2+, 25 C; EMSA: 50 mM Tris-HCl pH 8.0, 2 mM beta-mercaptoethanol, 0.1 mg/ml BSA, 4 mM MgCl2, 5% glycerol, 2 nM probe, 10 min at 25 C (room temperature), 5% PAGE in 0.1x TBE; Tm: 10 mM potassium phosphate pH 7.0, 20-90 C; settings: protein: recombinant; label: 32P on D30; blunt
T1 sequence: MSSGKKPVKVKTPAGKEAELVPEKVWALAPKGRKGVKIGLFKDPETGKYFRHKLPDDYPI

Sso7d = target: T2, Sso7d (Sulfolobus solfataricus, UniProt P39476 1-64); experiment: EMSA; apparent Kd; 4 mM Mg2+, 25 C; EMSA: 50 mM Tris-HCl pH 8.0, 2 mM beta-mercaptoethanol, 0.1 mg/ml BSA, 4 mM MgCl2, 5% glycerol, 2 nM probe, 10 min at 25 C (room temperature), 5% PAGE in 0.1x TBE; Tm: 10 mM potassium phosphate pH 7.0, 20-90 C; settings: protein: recombinant, blunt
T2 sequence: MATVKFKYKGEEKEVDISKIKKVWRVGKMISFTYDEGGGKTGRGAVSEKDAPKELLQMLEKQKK

Cren7 [2] = target: T1, Cren7; experiment: thermal denaturation (A260); EMSA: 50 mM Tris-HCl pH 8.0, 2 mM beta-mercaptoethanol, 0.1 mg/ml BSA, 4 mM MgCl2, 5% glycerol, 2 nM probe, 10 min at 25 C (room temperature), 5% PAGE in 0.1x TBE; Tm: 10 mM potassium phosphate pH 7.0, 20-90 C; settings: protein: recombinant; blunt

B1: 30-bp dsDNA (D30/Com30) (dsDNA)
DNA 1: TGCTTCCTTCAATGTGCTGGGATCCTACAA
DNA 2: TTGTAGGATCCCAGCACATTGAAGGAAGCA
binding result (Cren7 [1]): binds | Kd (Sso7d; label: 32P on D30): 150 nM

B2: 30-bp RNA:DNA hybrid (R30/Com30) (DNA:RNA)
RNA: UGCUUCCUUCAAUGUGCUGGGAUCCUACAA
DNA: B1 DNA 2
modifications: R30 strand is RNA
Kd (Sso7d; label: 32P on R30): 500 nM

B3: 15-bp dsDNA (D15/Com15) (dsDNA)
DNA 1: TGCATCCTTCAAGAC
DNA 2: GTCTTGAAGGATGCA
binding result (Cren7 [2]): binds

— article PMC3783171, “Sulfolobus chromatin proteins modulate strand displacement by DNA polymerase B1”
